# Data published in the nanobody polyreactivity screen of Harvey et al. (2022).
# Test: yeast display, Sf9 membrane polyspecificity reagent, FACS + sequencing; frameworks hold sequencing errors
# How it was run: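 A nanobody's polyreactivity label depends on the gate it was sorted from. Yeast display cells were stained with 10% biotinylated, detergent-solubilized Sf9 membrane reagent for 1 hour at 4 °C, enriched on streptavidin microbeads and sorted by FACS. The low and high (top ~1%) gates were set on anti-HA fluorescence for expression and streptavidin fluorescence for reagent binding.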
row,Sequence,polyreactivity (PSR sort gate)
1,QVQLVESGGGLVQAGGSLRLSCAASGFILSVYAMGWYRQAPGTETELVAAISKRGGSTNYADSVKGRFTISRDNAKDTVYLQMNSLKPEDTAVYYCAKARAGFLYDHWGQGTQVTVSS,high polyreactivity
2,QVQLVESGGGLVQAGCSLRLSCAASGFIFVGKDMGWYRQAPGKERELVAAISSGGTTNYADSVKGRFTISRDNAKNTVYLQMNSLKPEDTAVYYCAADFDYRQGYDSFHLDYWGQGTQVTVSS,low polyreactivity
3,QVQLVESGGGLVQAGGSLRLICAASGFIFTPYAMGWYRQAPGKERELVAAITWRGARTYYADSVKGRFTISRDNAKNTVYLQMNSLKPEDTAVYYCAVAYWNRQSLFRMYYWGQGTQVTVSS,high polyreactivity
4,QVQLQESGGGMVQAGGCLRLSCAASVTIFDPDYMGWYHQAPGKERELVASISLGRITYYADSVKGRFTINRDNAKNTVFLQMISLKPEDTAVYYCAAVTGLFYHPFYKYNYWGQGTQVTVSS,high polyreactivity
5,QVQLVESGGGLVQAGGSLRLSCAASGSTFNGYAMGWYRQAPGKERELVAAISSDGGSTYYADSVKGRFTISRDNAKNTVYLQMNSLKPEYTAVYYCAALVYVSGYGYYYWGQGTQVTVSS,high polyreactivity
6,QVQLVESGGGLVQAGGSLRLSCAASGRIFRYYVMGWYRQAPGKERELVASITRVGRTNYADSVKGRFTISRDNAKNTVYLQMNSLKPEDTAFYYCAADVWWSTYRVTDDYWGQGTQVTVSS,high polyreactivity
7,QVQLVESGGGLVQAGGSLRLSCAASGRTVSSNAMGWYRQAPGKERELVASISFRGGRTYYADSVKGRFTISRDNAKNPVYLQMNSLKPEDTADYYCVSGTKRTGYGYWGQGTQVTVSS,high polyreactivity
8,QVQLVESGGGLVQAGGSLRLSCAASGRTFRPYDMGWYRQAPGKERELVATITTNGGSTYYADSVKGRFTISRDNAKNTVYLQMNSLKPEDTAVYYCATDNWWQTYHYQGGYYWGQGTQVTVSS,low polyreactivity
9,QVQLVESGGGLVQAGGSLRLSCAASGSTFYAYAMGWYRQAPGKERELVAAISSDGSTNYADSVKGRFTISRDNAKNTVYLQMNSLKPEDTAVYYCAADDNGAWVRMDYWGQGTQVTVSS,low polyreactivity
10,QVQLVESGGGLVQAGGSLRLSCAASGRIITAYYAMGWYRQAPGKERELVASISSSGTSTYADSVKGRFTISRDNAKNTVYLQMNSLKPEDTAVYYCATRKLRTRRYDYGYWGQGTQVTVSS,low polyreactivity
11,QVQLVDSGGGLVQAGGSLRLICAASGSTFARNTMGWYRQAPGKETELVAVISRGDSTYYADSVKGRFTISRDNAKNSVYLQMNSLKPEDTAVNYCIAYLRYAYPSKMDYWGQGTQVTVSS,low polyreactivity
12,QVQLVESGGGLVQAGGSLRLSCAASGSTFRYNAMGWYRQAPGKVRELVAAIDKRGDSTYADSVKGRFTISRDNAKNTVYLQMNSLKPEDTAVYYCAADSDSKYNYGFLWDTYEYWGQGTQVTVSS,low polyreactivity
13,QVQLVDSGGDLVQAGGSLSLSCAASGRIFVYYAMGWYRQAPGTERELVAVITSVGSTYYADSVKGRFTISRDNAKNTVYLQMNSLKPEDTAVYYCAAEWEYYGFDYWGQGTQVTVSS,low polyreactivity
14,QVQLVESGGGLVQAGGRLRLSCPASGRIFSLYAMGWYRQAPGKERELVAVISSTGVSSHYADSVKGRFTISRDNAKYTVYLLMNSLNPEDTAVYYCNARWSFPRWGYEYGYWGQGTQVTVSS,high polyreactivity
15,QVQLVESGGGLVQAGGSLRLSCAASGNTLDAYTMGWYRQAPGKERELVAAISRGGTRTYYADSVKGRFTISRDNAKNTVYLQMNSLKPEDTAVYYCNKVRDYSYDSWGQCTQVTVSS,high polyreactivity
16,QVQLVESGGGLVQAGGSLRLTCAASGRIFWINDMVWNRQAPGKESELVAAIRSIGGSTYYADSVKGRFRISRDNAKNTVYLQMNSLKPEDTSVYYCAAKSSPKFRGRYYYWGQGTQVTVSS,low polyreactivity
17,QVQLVESGGGLVQAGGSLRLSCAASGSIFYVYAMGWYRQAPGKERELVASISWGDSSTYYADSVKGRFTISRDNAKNTVYLQMNSLKPDDTAVYYCAADEYRQYALYDYWGQGTQVTVSS,low polyreactivity
18,QVQLVESGGGLVQAGGSLRLSCAASGSTFYDYAMGWYRQAPGKERELVAAISQSGGSTYYADSVKGRFTISRDNAKNTVYLQMNSLKPEDTAVYYCAADSGYSLYDYWGQCTQVTVSS,low polyreactivity
19,QVQLVESGGGLVQAGGSLRVSCAASGGTFTAYAMGGYIQAPGNERQLVAAISASGDSTYYADSVKGRFTISRDNPKHTVYLQMNSLKPDDTAVYYCAADWAYKYELDYWGQGTQVTVSS,low polyreactivity
20,QVQLVESGGGLVQAGGSLRLSCAASGSIFDDYAMGWYRQAPGKERELVAAISWSGGRPYYADSVKGRFTNSRDNAKNTVYLPMNSLKPEDTAVYYCAATTGVRSRRYYYWVQGTQVTVSS,low polyreactivity
21,QVQLVESVGGLVQAGGSLRLSCAASGSNFYVNAMGWYRQAPGKERELVAAISRRGGSTYYADSVKGRFTISRDNAKNTVSLQMNSLKPEDTAVYYCNKAIRGQAPSGPEYYYWGHGTQVTVSS,high polyreactivity
22,QVNHVESGGGLVQAGGSLRLTCAASGRTFSRYVMGWYRQSPGKERELVAAISRTGGRTYYADSVKGRFTISRDNAKNSVYLQMNSLNPEDTAVYYCYAGTVLISTYDYWGQGTQVTLSS,high polyreactivity

row,Sequence,polyreactivity (PSR sort gate)
1,QEQLQESGGGLVQEGGSLRLSCAASGNISPPADMGWYRQAPGKERELVASIGTGGTTNYADSVKGRFTISRDNAINTVYLQMNSLKPDDTAVYYCAAVRYEYNPYDYWGQGTQVTVSS,low polyreactivity
2,QVQLVESGGGLVQAGGSLRLSCAASGRIFYRYAMGWYRQAPGKERELVAGITRGGSTYYADSVKGRFTISRDNAKNTVYLQMNSLKPEDTAVYYCNVRWSPAGTGLLDFWGQGSQVTVSS,high polyreactivity
3,QVQLVESGGGLVQAGGSLRLSCAASGFIFTTYAMGWYRQAPGKERELVAAISSSGTTYYADSVKGRFTISRDNAKNTVYLQMNSLKPEDTAVYYCAARRQFRSYQQRLYYWGQGTQVTVSS,low polyreactivity
4,QVQLVESRGGLVQAGGSLPLSCAASGSIFDRYAMGWYRQAPGKERELVAAISRSGGSTYYADSVKGRFTISRDNAKNTVYLQMNSLKPEDTAVYYCAARARSLYDYWGQGTQVTVSS,high polyreactivity
5,QVQLVESGGGLVQAGGSLRLSCAASGFTFLWNAMGWYRQAPGKERELVAAINGNSGNTYYADSVKGRFTISRDNAKNTVYLQMNSLKPEDTAVYYCARRGGVRGYYGGRRSKMDYWGQGTQVTVSS,low polyreactivity
6,QVQLVESGGGLVQAGGSLRLSCAASGIIFVGYAMGWYRQAPGKERELVAAISSGGSTNYADSVKGRFTISRDNAKNTVYLQMNSLKPEDTAVYYCATDSGDGEGDYWGQGTQVTVSS,low polyreactivity
7,QVQLVESGGGLVQAGGSLRLSCAASGSIFGVNAMGWYRQAPGKERELVATITWRTGSTYYADSVKGRFTISRDNAKNTVYLQMNSLKPEDTAVYYCAAEDYTEFDYWGQGTQVTVSS,low polyreactivity
8,QVQLVESGGGLVQAGGSLRLSCAASGSTLYGNVMGWYRQAPGKERELVATINRGGSTNYADSVKGRFTISRDNAKNNVYLQMNSLKPEDTAVYYCAADYYGYWYDYEGDHWGQGTQVTVSS,low polyreactivity
9,QVQLVESGGGLVQAGGSLRLSCAASGRIFSTNAMGWYRQAPWKERELVASISKSGGSTYYADSVKGRFTISRDNAKNTVYLQMNSLKPEDTAVYYCAASSYSTSYIRGDYWGQGTQVTVSS,low polyreactivity
10,QDQLVESGGGLVQAGGSLRLICAASGGIFLVYTMGWYRQAPGKERELVAAITSGGSTKYADSVKGRFTISRDNAKNTVYLQMNSLKPEDTAVYYCAAYRRSWRYPSVRYYKYDYWGQGTQVTVSS,high polyreactivity
11,QVQLVESVVGLVQAGGSLRLSCDASGRIFRYYAMGWYRQAPGKERELVARITSSGSTYYADSVKGRFTISRDNAKNTVYLQMNSLKPDDTAVYYCAADWYWGGIVDSWGQGTQVTVSS,high polyreactivity
12,QVQLVESGGGLVQAGGSLRLSCAASGNIFLYYAMGWYRQAPGKERELVADIDASGASTYYADSVKGRFTIARDNAKKTVYLQLNSLTPEDTAVYYCAAEFHWWYAGYDYGYWGQGTQVTVSS,low polyreactivity
13,QVQLVESGGGLVQAGGSLRLSCAASGGTFDYYAMGWYRQAPGKERELVAAITRGSTNYADSVKGRFTISRDNAKNTVYFQMNSLKPEDTAVYYCAARGRFVTPQPSYDYWGQGTQVTVSS,high polyreactivity
14,QVQLVETGGGLVQAGGSLRLSCAASGFTFYGYAMGWYRQAPGKERELVAAISSSGGRTYYADSVKGRFTISRDNAKNTVYLQMNSLKPEDTAVYYCAVDYYGKVGDDYLGQGTQVTVSS,low polyreactivity
15,QVQLVESGGGLVQAGGSLRLSCAASGSTFWYYAMGWYRQAPGKERELVAAISRGGNTYYADSVKGRFTISRDNAKNTVYLQMNSLKPEDTAVYYCAARVHYWYPSTGHHYWGQGTQVTVSS,high polyreactivity
16,QVQLVESGGGLVQAGGSLRLSCAASGLIFYPYAMGWSRQAPGKEREFVAAITWSGGSTRYADSVKGRFTISRDNAKNTVYLQMNSLNPEDTAVYYCAAAYKWTYYWGQGTQVTVSS,high polyreactivity
17,QVQLVESGGGLVQAGGSLRLSCAATGSIFQSYAMGWYRQAPGKERELVAAITARGTSTYYADSVKGRFTISRDNAKNTVYLQMNSLKPEETAVYYCNTDRSRSPGDVESPSDIKRDYWGQGTQVTVSS,low polyreactivity
18,QVHLVESGGGLVQAGGSLRLSCAASVRTYRGNAMGWYRQAPGKEREMVAAITYRTGSTYYADSVKGRFTISRDNAKNTVYLLMNSLKPEDTAVYYCAAVSGRSYDKYYYWGQGTQVTVSS,high polyreactivity
19,QVQLVESGGGLVQAGGSLRLSCAASGYTDYAMGWYRQAPGKERELVATITSGDNTNYADSVKGRFTISRDNAKNTVYLQMNSPQPEDTAVYYCAADRIGRYRPYIGYWGQGTQVTVSS,low polyreactivity
20,QVQLVESGGGLVQAGGSLRLSCAASGITFLNYAMGWYRQAPGKERELVAAISWSGGRTYYADSVKGRFTISRDNGKNTVYLQMNSLKPEDTAVYYCAADRGVNSYGYWGQGTQVTVSS,high polyreactivity
21,QVQLVESGGGFVQAGGSLRLSCAASGRIFHHNAMGGYRQAPGKVRELDATITKSGGSTYADSVKGRFTISRANAKNTVYLQMNSRKPEETAVYSCAATSVGAYGVRKYWYDYWAQGTQVTVSS,low polyreactivity
